The text below walks through data of patent US20210269509A1 (Genmab, published 2021).

This test addresses T1, Protein L (recombinant protein L immobilized on a matrix; HiTrap Protein L, GE Healthcare) (Finegoldia magna).
T1 construct: also called Protein L resin; Finegoldia magna Protein L
T1 chain: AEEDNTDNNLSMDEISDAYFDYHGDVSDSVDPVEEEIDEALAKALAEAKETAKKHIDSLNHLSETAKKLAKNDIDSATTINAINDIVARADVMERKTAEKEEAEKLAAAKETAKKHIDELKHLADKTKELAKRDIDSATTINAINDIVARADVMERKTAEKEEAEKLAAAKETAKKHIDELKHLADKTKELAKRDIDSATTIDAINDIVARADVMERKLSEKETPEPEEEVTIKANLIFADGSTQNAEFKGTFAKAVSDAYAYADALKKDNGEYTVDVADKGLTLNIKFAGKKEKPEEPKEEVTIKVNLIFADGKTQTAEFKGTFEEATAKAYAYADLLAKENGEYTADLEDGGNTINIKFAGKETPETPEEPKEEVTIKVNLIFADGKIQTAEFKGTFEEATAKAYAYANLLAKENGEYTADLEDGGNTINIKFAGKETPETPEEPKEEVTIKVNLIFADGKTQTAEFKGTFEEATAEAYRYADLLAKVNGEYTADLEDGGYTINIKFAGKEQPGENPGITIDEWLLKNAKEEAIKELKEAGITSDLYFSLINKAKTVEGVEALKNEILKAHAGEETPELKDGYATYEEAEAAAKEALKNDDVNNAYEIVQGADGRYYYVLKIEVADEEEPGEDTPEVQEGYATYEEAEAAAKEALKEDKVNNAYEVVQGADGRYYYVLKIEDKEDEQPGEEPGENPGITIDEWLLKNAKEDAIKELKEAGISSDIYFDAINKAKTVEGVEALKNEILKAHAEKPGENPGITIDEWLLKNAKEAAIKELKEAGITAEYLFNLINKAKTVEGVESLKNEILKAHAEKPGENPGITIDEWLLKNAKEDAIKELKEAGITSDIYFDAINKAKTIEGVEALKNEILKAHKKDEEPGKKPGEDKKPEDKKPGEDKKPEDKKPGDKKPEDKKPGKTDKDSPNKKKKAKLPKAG
Kind of test: HiTrap Protein L (5 mL) chromatography of purified antibody, step elution at pH 3.5, 3.0 and 2.5, A280 trace.

Experimental: 10 mL of the supernatant was loaded onto the HiTrap Protein L column. […] The column was washed with PBS and specifically bound material was eluted sequentially with 0.1 M glycine-HCl pH 3.5, 3.0 and 2.5 and neutralized with a few drops of 2M Tris pH 9.0. The column was washed using 15 mM sodium hydroxide.

B1: IgG1-2F8-F405L-S12P (antibody, name in EU numbering)
heavy: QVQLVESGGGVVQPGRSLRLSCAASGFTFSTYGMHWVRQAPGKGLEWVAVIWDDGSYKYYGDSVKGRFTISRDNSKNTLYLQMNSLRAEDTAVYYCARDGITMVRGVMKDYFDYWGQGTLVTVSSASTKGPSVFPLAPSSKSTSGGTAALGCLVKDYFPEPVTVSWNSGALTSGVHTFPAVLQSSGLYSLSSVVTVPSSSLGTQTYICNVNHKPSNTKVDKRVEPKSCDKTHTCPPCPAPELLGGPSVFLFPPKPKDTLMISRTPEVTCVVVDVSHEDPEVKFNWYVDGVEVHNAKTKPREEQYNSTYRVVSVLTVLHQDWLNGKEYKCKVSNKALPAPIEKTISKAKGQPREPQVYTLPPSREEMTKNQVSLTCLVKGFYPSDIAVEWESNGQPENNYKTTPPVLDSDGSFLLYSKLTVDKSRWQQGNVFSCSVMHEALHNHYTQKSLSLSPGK
light: AIQLTQSPSSLPASVGDRVTITCRASQDISSALVWYQQKPGKAPKLLIYDASSLESGVPSRFSGSESGTDFTLTISSLQPEDFATYYCQQFNSYPLTFGGGTKVEIKRTVAAPSVFIFPPSDEQLKSGTASVVCLLNNFYPREAKVQWKVDNALQSGNSQESVTEQDSKDSTYSLSSTLTLSKADYEKHKVYACEVTHQGLSSPVTKSFNRGEC
notes: IgG1m(f), kappa; also called IgG-2F8-F405L-S12P; IgG1-2F8-S12P
B1: the binding result is listed as “no binding”.
